Results taken from publication PMC9706563 (2022).
Read-outs that look alike come from different tables or passages of the source. Blank lines part the entries; values can stand above or below the binder they belong to. Bridge positions count the residues as written; N and C are the ends. Square brackets hold non-standard residues; d marks the D form. Ends that are not written are not given here. * marks the point of attachment. FITC = O=C1OC2(c3ccc(O)cc3Oc3cc(O)ccc32)c2ccc(NC(=S)*)cc21; Phe(4-NO2) = N[C@@H](Cc1ccc([N+](=O)[O-])cc1)C(=O)O; Gla = N[C@@H](CC(C(=O)O)C(=O)O)C(=O)O; Dap = NC[C@H](N)C(=O)O; AEEA = NCCOCCOCC(=O)O

What was measured:
Test in all cases: FP
[1] = target: T1, PRMT5-MEP50 complex (full-length, purified) (human | , UniProt O14744 1-637; Q9BQA1 1-342)
T1 sequence (O14744 whole entry, chain 1 of 2): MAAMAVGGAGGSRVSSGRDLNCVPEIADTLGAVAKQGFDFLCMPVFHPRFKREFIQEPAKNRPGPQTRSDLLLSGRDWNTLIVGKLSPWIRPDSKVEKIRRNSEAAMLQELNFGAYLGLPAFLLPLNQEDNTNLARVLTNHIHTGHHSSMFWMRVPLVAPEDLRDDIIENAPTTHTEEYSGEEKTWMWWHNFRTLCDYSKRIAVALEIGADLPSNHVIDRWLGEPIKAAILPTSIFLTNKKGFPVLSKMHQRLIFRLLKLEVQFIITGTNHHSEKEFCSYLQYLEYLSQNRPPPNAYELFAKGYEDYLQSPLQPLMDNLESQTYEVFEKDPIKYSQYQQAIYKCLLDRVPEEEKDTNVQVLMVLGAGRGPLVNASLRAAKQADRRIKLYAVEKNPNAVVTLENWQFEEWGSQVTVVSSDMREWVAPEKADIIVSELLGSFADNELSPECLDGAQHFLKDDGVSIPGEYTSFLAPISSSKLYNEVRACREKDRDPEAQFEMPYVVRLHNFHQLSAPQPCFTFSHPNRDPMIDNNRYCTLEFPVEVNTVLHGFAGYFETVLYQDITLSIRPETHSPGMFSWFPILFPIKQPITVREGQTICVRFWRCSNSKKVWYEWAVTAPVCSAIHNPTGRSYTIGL
T1 sequence (Q9BQA1 whole entry, chain 2 of 2): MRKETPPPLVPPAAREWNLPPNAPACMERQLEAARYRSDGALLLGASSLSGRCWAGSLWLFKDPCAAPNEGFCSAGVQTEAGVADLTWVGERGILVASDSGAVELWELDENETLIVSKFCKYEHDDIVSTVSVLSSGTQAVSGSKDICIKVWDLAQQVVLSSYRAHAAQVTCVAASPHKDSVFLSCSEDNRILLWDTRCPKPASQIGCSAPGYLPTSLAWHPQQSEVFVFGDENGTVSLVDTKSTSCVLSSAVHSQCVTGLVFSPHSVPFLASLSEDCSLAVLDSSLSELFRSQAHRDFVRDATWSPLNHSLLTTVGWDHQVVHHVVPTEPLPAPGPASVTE

[2] = target: T1, PRMT5-MEP50 complex (full-length, …); remark: listed apart in the source
[3] = target: T1, PRMT5-MEP50 complex (full-length, …); remark: listed apart in the source

Binder: {FITC-AEEA}-SRVVP[Dap]QFDDADSSD-NH2 (lactam 6-9; not fully specified) [5]
- Kd [2]: > 2000 nM

Binder: SRVVPGQF[dA]DADSSD [peptide 2 (RioK1 PBM with D-Ala)]
- Ki [1]: 4500 nM

Binder: VPGQ[Phe(4-NO2)]DDAD (also: FITC as in peptide 29) [linear peptide 41 (29 with Phe replaced by Phe(4-NO2))]
- Kd [3]: 232 nM

Binder: VPGQFDDA[Gla] (also: FITC as in peptide 29) [linear peptide 40 (29 with Asp replaced by Gla)]
- Kd [3]: 245 nM

Binder: SRVVP[dA]QFDDADSSD [peptide 1 (RioK1 PBM with D-Ala)]
- Ki [1]: 5100 nM

More lines, now with the values ahead:

- Ki [1]: 65000 nM
Binder: SRVVP[dA]QF[dA]DADSSD [peptide 3 (RioK1 PBM with D-Ala at 14 and 17)]

- Ki [1]: 1800 nM
B1: peptide 4 (native RioK1 PBM sequence, unlabeled reference) (peptide)
chain: SRVVPGQFDDADSSD
modifications: unlabeled; taken as the same span as the printed RioK1 tracer sequence (7BOC entity 2); end groups are in the figure/SI
